Data as given in IntAct's records for PubMed 19644450.

What was measured:
SPAG9, O60271-2 [1] = molecular target: SPAG9, O60271-2
SPAG9, O60271-2 [2] = molecular target: SPAG9, O60271-2; remark: listed apart in the source

Chain of SPAG9, O60271-2 (O60271 other isoform, or with tags, fused parts or gaps): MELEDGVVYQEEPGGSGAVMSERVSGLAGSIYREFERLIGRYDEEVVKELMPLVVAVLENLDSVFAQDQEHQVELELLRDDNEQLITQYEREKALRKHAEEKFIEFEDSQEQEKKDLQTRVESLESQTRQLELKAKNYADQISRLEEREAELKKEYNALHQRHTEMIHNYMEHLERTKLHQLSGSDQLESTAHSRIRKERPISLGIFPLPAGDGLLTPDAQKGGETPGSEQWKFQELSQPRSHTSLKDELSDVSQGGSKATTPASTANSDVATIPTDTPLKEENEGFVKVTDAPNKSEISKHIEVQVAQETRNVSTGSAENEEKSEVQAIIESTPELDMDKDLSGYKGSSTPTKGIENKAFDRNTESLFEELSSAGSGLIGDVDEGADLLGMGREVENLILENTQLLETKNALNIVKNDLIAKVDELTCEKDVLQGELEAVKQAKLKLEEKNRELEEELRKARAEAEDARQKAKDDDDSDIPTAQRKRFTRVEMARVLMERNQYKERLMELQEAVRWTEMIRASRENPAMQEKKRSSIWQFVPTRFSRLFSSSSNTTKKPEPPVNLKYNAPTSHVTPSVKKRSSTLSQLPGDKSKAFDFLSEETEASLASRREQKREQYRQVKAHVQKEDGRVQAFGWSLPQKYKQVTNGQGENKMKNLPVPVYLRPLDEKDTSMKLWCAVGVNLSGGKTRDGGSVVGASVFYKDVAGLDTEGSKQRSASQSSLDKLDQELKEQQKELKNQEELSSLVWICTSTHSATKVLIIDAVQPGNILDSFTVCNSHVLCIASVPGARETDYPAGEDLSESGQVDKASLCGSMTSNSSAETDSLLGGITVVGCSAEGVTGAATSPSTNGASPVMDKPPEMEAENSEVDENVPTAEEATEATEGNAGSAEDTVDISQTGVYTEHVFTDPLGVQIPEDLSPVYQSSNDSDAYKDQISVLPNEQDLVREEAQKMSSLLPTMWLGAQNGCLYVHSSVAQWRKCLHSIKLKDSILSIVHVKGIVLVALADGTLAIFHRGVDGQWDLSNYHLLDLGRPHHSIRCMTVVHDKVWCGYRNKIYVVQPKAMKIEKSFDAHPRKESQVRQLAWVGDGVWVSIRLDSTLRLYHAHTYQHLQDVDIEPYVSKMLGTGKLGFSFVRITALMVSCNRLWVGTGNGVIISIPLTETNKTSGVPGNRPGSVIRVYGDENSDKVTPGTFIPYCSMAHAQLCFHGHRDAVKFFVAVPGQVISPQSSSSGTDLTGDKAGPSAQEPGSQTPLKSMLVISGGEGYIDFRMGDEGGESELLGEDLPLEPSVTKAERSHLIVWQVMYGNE
Chain of ADP-ribosylation factor 1 (Homo sapiens), P84077 S62K (P84077 whole entry S62K): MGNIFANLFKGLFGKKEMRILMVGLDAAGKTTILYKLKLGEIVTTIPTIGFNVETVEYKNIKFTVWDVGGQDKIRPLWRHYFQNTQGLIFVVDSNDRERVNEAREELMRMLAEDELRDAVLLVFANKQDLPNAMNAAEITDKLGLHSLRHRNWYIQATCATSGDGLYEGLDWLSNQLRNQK
Chain of ADP-ribosylation factor 1 (Homo sapiens), P84077 E57T (P84077 whole entry E57T): as the sequence (P84077 whole entry S62K) above, with E57T, K62S counted along it

effect of a mutation on the interaction (SPAG9, O60271-2 [1])	effect of a mutation on the interaction (SPAG9, O60271-2 [2])	Substance
increasing interaction		ADP-ribosylation factor 1 (Homo sapiens), P84077 E57T
increasing interaction		ADP-ribosylation factor 1 (Homo sapiens), P84077 Q83T
	increasing interaction	ADP-ribosylation factor 1 (Homo sapiens), P84077 S62K
	increasing interaction	ADP-ribosylation factor 1 (Homo sapiens), P84077 T64N
